Target: T1, NMDARs of hippocampal CA1 pyramidal neurons (Mus musculus, UniProt O08532+P35438)
T1 construct: from tissue; host or cells: mouse brain slices (hippocampal CA1, hypothalamic PVN, brain tissue membrane extracts)
Assay: Puff NMDAR currents of hippocampal CA1 neurons, oxygen-glucose deprivation (OGD)
Assay type: cell-based
Conditions: gabapentin 30 or 100 μM, 60 min
Experimental: Brain slice preparation and recording. The tissues containing the hippocampus were sliced sagittally (300 μm thick) using a vibratome. […] NMDAR currents of pyramidal neurons in the hippocampal CA1 region were recorded by puff application of 100 μM NMDA directly to the recorded neuron at a holding potential of −60 mV.

T1 sequence (O08532 25-956 limits assumed, other chains not shown): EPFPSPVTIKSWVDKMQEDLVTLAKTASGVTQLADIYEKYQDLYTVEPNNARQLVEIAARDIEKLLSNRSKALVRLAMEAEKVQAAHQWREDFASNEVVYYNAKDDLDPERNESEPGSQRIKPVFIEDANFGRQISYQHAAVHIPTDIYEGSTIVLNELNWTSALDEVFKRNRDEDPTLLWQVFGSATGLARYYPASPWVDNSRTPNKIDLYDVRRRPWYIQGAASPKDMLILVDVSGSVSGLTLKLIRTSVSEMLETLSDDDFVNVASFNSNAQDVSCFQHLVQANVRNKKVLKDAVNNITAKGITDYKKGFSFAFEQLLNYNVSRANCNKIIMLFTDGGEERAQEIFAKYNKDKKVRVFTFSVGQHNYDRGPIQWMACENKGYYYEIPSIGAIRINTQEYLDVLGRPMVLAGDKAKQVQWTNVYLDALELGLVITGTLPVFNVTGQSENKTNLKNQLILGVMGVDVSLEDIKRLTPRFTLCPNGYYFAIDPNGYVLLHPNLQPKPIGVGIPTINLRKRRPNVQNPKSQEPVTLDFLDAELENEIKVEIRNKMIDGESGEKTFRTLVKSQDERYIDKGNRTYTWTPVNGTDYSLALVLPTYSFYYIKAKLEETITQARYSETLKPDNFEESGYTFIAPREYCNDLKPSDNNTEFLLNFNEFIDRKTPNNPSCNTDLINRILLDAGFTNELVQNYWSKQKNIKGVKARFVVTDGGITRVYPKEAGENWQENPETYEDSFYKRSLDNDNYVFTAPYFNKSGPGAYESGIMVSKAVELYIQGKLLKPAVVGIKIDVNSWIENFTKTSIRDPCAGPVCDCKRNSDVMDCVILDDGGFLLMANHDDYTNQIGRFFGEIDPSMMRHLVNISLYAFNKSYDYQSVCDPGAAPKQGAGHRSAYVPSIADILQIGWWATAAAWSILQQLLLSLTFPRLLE

Sequence: YGRKKRRQRRRVSGLNPSLWSIFGLQFILLWLVSGSRHYLW (a2d1 peptide) [α2δ-1Tat peptide, 30-amino-acid peptide mimicking the C-terminal domain of α2δ-1 fused to the cell-penetrating peptide Tat]
- OGD-induced increase in the puff NMDAR currents (5 min OGD, peptides 1 μM): failed to increase
- basal puff NMDAR currents of hippocampal CA1 pyramidal neurons (before OGD, peptide 1 μM): had no effect

Reference: patent US11787839B2, “Targeting α2δ-1-bound glutamate receptors for treating diseases and disorders” (Board of Regents, The University of Texas System, priority 2017, dated 2023)
